Data from patent US20060233785A1, “Immunointeractive molecules and uses thereof” (priority 2001, published 2006).
“Also recorded” adds a separate entry of the source. Like-named read-outs stand apart in the source and are kept apart here.

Columns and labels:
basophils = test: Basophil Activation Test; type: cell-based, human; conditions: for activated basophils / basophil activation above background / basophils activated (above background): 10 μg/ml; for basophil activation above background levels / basophil activation over background: latex allergic subjects; for basophil activation above background levels: 0.1 μg/ml (FIGS. 9B and C); for basophil activation over background: 1 μg/ml; for basophil activation: non-latex allergic control subject N2; for basophil activation above background: one subject (FIG. 9B); for basophils activated (above background): latex allergic subjects (FIGS. 9B, C and D)
Description: FIG. 9 is a graphical representation of the basophil Activation Test on a latex allergic donor. Whole blood from a latex allergic, Hev b 6 sensitized subject was incubated with latex allergens. The cells were stained with FITC labelled anti-human IgE polyclonal antibodies and a PE labelled monoclonal anti-human CD63 antibody. Cells were analysed by flow cytometry defining basophils on the basis of scatter (A) and high IgE staining (B). The percentage of activated basophils expressing CD63 was determined (C).
The Basophil Activation Test was performed on whole blood from (A) non-latex allergic subject N2; (B) latex-allergic subject A7; (C) latex-allergic subject A8 and (D) latex-allergic subject A10. Antigens: latex glove extract (GE), hevein peptide (hevein), rHev b 6, mutant rHev b 6 (MU rHev b 6), sulphonated rHev b 6, (sul. rHev b 6), rHev b 5, KLH and house dust mite extract (HDM). All allergens were used at 10 μg/ml except for rHev b 6 and mutant rHev b 6 which were used at 0.1, 1 and 10 μg/ml. The cut-off for positive was set at the level of activated basophils after incubation in stimulation buffer alone (no antigen, horizontal line). A plus symbol (+) indicates antigen to which a subject has either a positive clinical history of allergy and/or a positive reading on an allergen-specific IgE ELISA.
A basophil activation assay based on flow cytometry was used to quantify the activation of basophils after incubation with various allergens. This assay was modified from Paris-Kohler A, Demoly P, Persi L, Lebel B, Bousquet J, Arnoux B. In vitro diagnosis of cypress pollen allergy by using cytofluorimetric analysis of basophils (Basotest). J Allergy Clin Immunol 2000; 105:339-45. Whole blood was collected in 6 ml heparinised vacutainers (Greiner). 100 μl aliquots were preincubated with stimulation buffer (20 mM Hepes, 133 mM NaCl, 5 mM KCl, 7 mM CaCl2, 3.5 mM MgCl2, 1 mg/ml BSA, 20 μl/ml heparin, pH 7.4) containing 2 ng/ml IL-3, for 10 min at 37° C., to increase the sensitivity of the assay. Samples were incubated for 20 min at 37° C. with 100 μl of stimulation buffer alone or stimulation buffer containing either rabbit anti-human IgE (Dako) at 1 in 500 dilution, 2 μM N-fMLP (Sigma, Mo, USA), crude allergen extracts, recombinant latex allergens or Keyhole Limpet Haemocyanin (KLH) (Sigma, Mo, USA). Basophil activation was stopped by incubating at 4° C. for 5 min. Normal goat serum (10 μl) was added to each tube to block non-specific binding of the detection antibody (goat anti-human IgE-FITC) and incubated for 10 min at 4° C. Samples were incubated with goat anti-human IgE-FITC (Caltag, Birmingham, Calif.) at a dilution of 1 in 2.5, and mouse anti-human CD63-R-Phycoerythrin (PE; Caltag, Birmingham, Calif.) at a dilution of 1 in 20, in a 20 μl volume of wash buffer (20 mM HEPES, 133 mM NaCl, 5 mM KCl, 0.27 mM EDTA, pH7.3). RBC were lysed by the addition of 2 ml FACS lysing solution (39 mM NH4Cl, 2.5 mM KHCO3, 0.2 mM EDTA) and incubation for 10 min at room temperature. Cells were centrifuged (250 g, 5 min at 4° C.), resuspended in 3 ml wash buffer, and centrifuged as before. Pellets were resuspended in 200 μl wash buffer, and analysed by flow cytometry (FACScalibur, Becton Dickinson) within 2 h of the experiment. 7AAD (Sigma, Mo, USA) was added to the samples 5 min prior to FACS analysis.

Hev b 6 specific IgE = test: ELISA for Hev b 6 specific human IgE (Examples 8 and 9); type: binding; conditions: for frequency of IgE reactivity in non-latex allergic subjects: 18 non-latex allergic subjects, compared with 6%; for latex allergic subjects positive for IgE binding by ELISA (positive/total) / latex allergic subjects positive for IgE binding by ELISA: 31 latex allergic subjects; for latex allergic subjects positive for IgE binding by ELISA: cut-off mean + 2 SD of non-latex allergic; for IgE binding by ELISA: sera of latex allergic, Hev b 6 sensitised subjects
Description: (§1) FIG. 6 is an image of sulphonation abolishing the IgE reactivity of rHev b 6. rHev b 6 (A) and sulphonated rHev b 6 (B) were resolved by 16% SDS-PAGE under non-reducing conditions. Gels were either stained with Coomassie Brilliant Blue (1) or transferred to nitrocellulose. Strips with transferred protein were incubated with the Hev b 6-specific mAb 1A5.4 and binding detected (2). Strips with transferred protein were also incubated with sera from two latex allergic, Hev b 6 sensitized subjects (3 and 4) and one non-latex-allergic, atopic subject (5). The presence or absence of IgE binding was then detected. […] Plates were coated with rHev b 6 and sulphonated rHev b 6 and the presence or absence of IgE-binding detected. As a positive control the Hev b 6-specific mAb 1A5 was used. NB indicates no binding of IgE was detected.
(§2) FIG. 7 is a graphical representation of the disruption of the first disulphide bond of Hev b 6 markedly decreasing IgE binding to rHev b6. IgE from the sera of 31 latex allergic and 18 non-latex allergic subjects assayed by ELISA for the ability to bind rHev b 6 (no substitution) and mutant rHev b 6 (cysteine to alanine substitution at amino acid 3). Plates were coated with both rHev b 6 and mutant rHev b 6 and incubated with subjects' sera (A) Population ELISA. Individual dots represent individual readings. The thin horizontal lines indicated the cut-off for positive for IgE binding to mutant rHev b 6 and rHev b 6, calculated as the mean of the readings for non-latex allergic subjects for each antigen plus 2 SD. The thick horizontal lines indicate the mean of each group. (B) Direct comparison of IgE and mAb binding to rHev b 6 and mutant rHev b 6. A1 to 11, latex-allergic subjects. N1, non-latex allergic subject. Dotted line indicates the cut-off for positive for IgE binding for mutant rHev b 6. The solid line indicates the cut-off for positive for IgE binding for rHev b 6.
(§3) Patient serum samples were tested for Hev b 6 specific IgE using our standard ELISA protocol (Sutherland et al. 2002, supra) with rabbit anti-human IgE (Dako, Denmark) at 1 in 1000 dilution followed by swine anti-rabbit IgG-HRP conjugate (Promega) at I in 1000 dilution. For the Hev b 6-specific mAb 1A5.4 (IgG1/kappa isotype) binding was detected using sheep anti-mouse Ig-HRP (Silenus) at 1 in 1000 dilution.

[1] = tested on: Hev b 6-specific mAb 1A5.4; test: ELISA for Hev b 6-specific mAb binding to rHev b 6 forms; design: species or system mouse
Description: as §1, §2, §3

latex allergic subjects positive for IgE binding by ELISA (positive/total) (Hev b 6 specific IgE)	latex allergic subjects positive for IgE binding by ELISA (Hev b 6 specific IgE) [%]	Hev b 6-specific mAb binding by ELISA [1]	Hev b 6-specific mAb binding by ELISA ([1]; listed as rHevb 6)	Molecule	activated basophils (basophils; another patient (FIG. 9C)) [%]	basophil activation above background levels (basophils)	basophil activation over background (basophils)	basophil activation (basophils)	basophil activation above background (basophils) [%]	activated basophils (basophils; third patient)	frequency of IgE reactivity in non-latex allergic subjects (Hev b 6 specific IgE)	IgE binding by ELISA (Hev b 6 specific IgE)	basophils activated (above background) (basophils)
21/31	68	bound to a similar extent	comparable reactivity	rHev b 6: recombinant Hev b 6 (prohevein) expressed in E. coli from pPROEX-HTa with 6-His tag (protein, left off: small tags and cut ends, recombinant Hev b 6 (prohevein) expressed in E. coli from pPROEX-HTa with 6-His tag) EQCGRQAGGKLCPNNLCCSQWGWCGSTDEYCSPDHNCQSNCKDSGEGVGGGSASNVLATYHLYNSQDHGWDLNAASAYCSTWDANKPYSWRSKYGWTAFCGPVGAHGQSSCGKCLSVTNTGTGAKTTVRIVDQCSNGGLDLDVNVFRQLDTDGKGYERGHITVNYQFVDCGDSFNPLFSVMKSSVIN	60	30-50%	50-60%	negligible	60	70%	same frequency	bound	
2/31	6	comparable reactivity		mutant rHev b 6: rHev b 6 with cysteine to alanine substitution at amino acid 3 of the mature protein (protein, left off: small tags and cut ends, rHev b 6 with cysteine to alanine substitution at amino acid 3 of the mature protein) EQAGRQAGGKLCPNNLCCSQWGWCGSTDEYCSPDHNCQSNCKDSGEGVGGGSASNVLATYHLYNSQDHGWDLNAASAYCSTWDANKPYSWRSKYGWTAFCGPVGAHGQSSCGKCLSVTNTGTGAKTTVRIVDQCSNGGLDLDVNVFRQLDTDGKGYERGHITVNYQFVDCGDSFNPLFSVMKSSVIN	40	no activation above background levels	5-10%	negligible	15	no activation	same frequency		up to 49%
		bound to a similar extent		sulphonated rHev b 6: purified rHev b 6 sulphonated in sulphonation buffer to improve solubility (protein, left off: small tags and cut ends) EQCGRQAGGKLCPNNLCCSQWGWCGSTDEYCSPDHNCQSNCKDSGEGVGGGSASNVLATYHLYNSQDHGWDLNAASAYCSTWDANKPYSWRSKYGWTAFCGPVGAHGQSSCGKCLSVTNTGTGAKTTVRIVDQCSNGGLDLDVNVFRQLDTDGKGYERGHITVNYQFVDCGDSFNPLFSVMKSSVIN								no detectable binding; also recorded: lack of reactivity	less than 5%
